Reference: the supplement of paper PMC10065799, “High-throughput profiling of sequence recognition by tyrosine kinases and SH2 domains using bacterial peptide display” (eLife, 2023)

target: Hck (UniProt P08631); test: phosphorylation enrichment, bacterial display (enrichment ratio); higher = better substrate or ligand; peptides without Tyr show the background
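Further: 11-residue human phosphosite peptides and single-mutation variants displayed on the E. coli surface, counted by deep sequencing, each peptide's frequency after selection divided by its frequency in the unselected input library; frequency after pTyr selection over input frequency; kinase dosed for 20-30% of maximal phosphorylation in three min.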

Sequence of Hck (P08631 whole entry, looked up): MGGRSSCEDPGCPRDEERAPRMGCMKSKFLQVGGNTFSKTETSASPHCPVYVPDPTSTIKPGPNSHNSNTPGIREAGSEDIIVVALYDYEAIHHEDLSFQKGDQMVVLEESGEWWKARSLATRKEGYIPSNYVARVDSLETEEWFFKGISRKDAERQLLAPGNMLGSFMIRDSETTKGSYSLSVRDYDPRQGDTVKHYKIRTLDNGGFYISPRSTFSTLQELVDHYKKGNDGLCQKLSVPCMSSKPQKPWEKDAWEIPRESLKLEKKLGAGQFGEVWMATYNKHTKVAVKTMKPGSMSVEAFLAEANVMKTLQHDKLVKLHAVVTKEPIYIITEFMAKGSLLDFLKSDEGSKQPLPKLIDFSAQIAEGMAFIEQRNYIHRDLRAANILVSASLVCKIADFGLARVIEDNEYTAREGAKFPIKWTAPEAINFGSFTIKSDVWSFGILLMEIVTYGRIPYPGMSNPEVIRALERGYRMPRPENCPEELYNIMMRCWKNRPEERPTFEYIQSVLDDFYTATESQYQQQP

| Sequence | phosphorylation enrichment |
| --- | --- |
| CNPRRYPVLMS [OR2T1_Y182_L180R] | 0.373 |
| ERRLIYTSDPK [VPS13D_Y864] | 0.39 |
| EDKSIYRRGAC [PRKCI_Y125_R130C] | 0.405 |
| CEHRGFLFLAI [TEK_Y897_Y897F_YF] | 0.434 |
| PLKYLYPNIDK [STAT1_Y668] | 0.782 |
| GFITSYREEEQ | 0.517 |
| AIMSFYAALID [RYR1_Y2426] | 0.574 |
| FATAGYGSLEA [EPHA10_Y959_A956T] | 0.437 |
| RRNNSYTCFTA [SLC20A2_Y386_YF] | 0.771 |
| TLQRMYGCDVG [HLA-B_Y123_S121R] | 0.501 |
| QNVADYMRFLM [RPL5_Y207_YF] | 1.09 |
| MKALGYFAVVK [OPA1_Y498_T503K] | 0.48 |
| TAGFIYEKWEI [TEC_Y360_S359I] | 3.79 |
| VMAALYGRLFE [BTD_Y536_T532M_YF] | 5.53 |
| GRQWNYVASML [KLHL4_Y552_S557L] | 0.418 |
| RLLVVYPWTQK [HBG1_Y36_R41K] | 0.547 |
| SVMAEYGLFRA [VSX2_Y219_G223R_YF] | 5.72 |

| Sequence | phosphorylation enrichment |
| --- | --- |
| VVKTVYSLQPP [KNSTRN_Y87] | 1.17 |
| QPTPGYEVGQR [TSC2_Y1788_E1783Q] | 0.535 |
| QYNPEYVQQAS [LRRC7_Y1058_H1054Y] | 0.831 |
| TTKAKYKTPIF [PLD2_Y573_T577I_YF] | 0.411 |
| SSSGAYGGGYG [KRT19_Y61] | 0.434 |
| KMKGDYYRSLA [YWHAG_Y130_Y133S] | 0.444 |
| EKKKFYDAKIE [CASP5_Y104_T106A_YF] | 0.468 |
| EKKDLYKAGEQ [CFH_Y1008_V1007L] | 0.374 |
| TISPFYCQSLF [CRYAA_Y48_R49C_YF] | 0.643 |
| SVTCTYSLALN [TP53_Y126_P128L] | 0.628 |
| GARGRYVMGGP [TNK1_Y277] | 0.379 |
| FGVTLYPNSGE [MEP1A_Y472_R476G] | 0.574 |
| DVQNAYDSNHC [ZFYVE16_Y36] | 0.533 |
| ANRNVYEVEPT [MEGF10_Y1075] | 0.842 |
| PATFTYDEFKK [COL8A2_Y648_YF] | 2.06 |
| LHRAHYDLCHT [AHSG_Y314_R317C] | 0.47 |

target: Jak2 (UniProt O60674); test: as above
Sequence (O60674 whole entry, looked up): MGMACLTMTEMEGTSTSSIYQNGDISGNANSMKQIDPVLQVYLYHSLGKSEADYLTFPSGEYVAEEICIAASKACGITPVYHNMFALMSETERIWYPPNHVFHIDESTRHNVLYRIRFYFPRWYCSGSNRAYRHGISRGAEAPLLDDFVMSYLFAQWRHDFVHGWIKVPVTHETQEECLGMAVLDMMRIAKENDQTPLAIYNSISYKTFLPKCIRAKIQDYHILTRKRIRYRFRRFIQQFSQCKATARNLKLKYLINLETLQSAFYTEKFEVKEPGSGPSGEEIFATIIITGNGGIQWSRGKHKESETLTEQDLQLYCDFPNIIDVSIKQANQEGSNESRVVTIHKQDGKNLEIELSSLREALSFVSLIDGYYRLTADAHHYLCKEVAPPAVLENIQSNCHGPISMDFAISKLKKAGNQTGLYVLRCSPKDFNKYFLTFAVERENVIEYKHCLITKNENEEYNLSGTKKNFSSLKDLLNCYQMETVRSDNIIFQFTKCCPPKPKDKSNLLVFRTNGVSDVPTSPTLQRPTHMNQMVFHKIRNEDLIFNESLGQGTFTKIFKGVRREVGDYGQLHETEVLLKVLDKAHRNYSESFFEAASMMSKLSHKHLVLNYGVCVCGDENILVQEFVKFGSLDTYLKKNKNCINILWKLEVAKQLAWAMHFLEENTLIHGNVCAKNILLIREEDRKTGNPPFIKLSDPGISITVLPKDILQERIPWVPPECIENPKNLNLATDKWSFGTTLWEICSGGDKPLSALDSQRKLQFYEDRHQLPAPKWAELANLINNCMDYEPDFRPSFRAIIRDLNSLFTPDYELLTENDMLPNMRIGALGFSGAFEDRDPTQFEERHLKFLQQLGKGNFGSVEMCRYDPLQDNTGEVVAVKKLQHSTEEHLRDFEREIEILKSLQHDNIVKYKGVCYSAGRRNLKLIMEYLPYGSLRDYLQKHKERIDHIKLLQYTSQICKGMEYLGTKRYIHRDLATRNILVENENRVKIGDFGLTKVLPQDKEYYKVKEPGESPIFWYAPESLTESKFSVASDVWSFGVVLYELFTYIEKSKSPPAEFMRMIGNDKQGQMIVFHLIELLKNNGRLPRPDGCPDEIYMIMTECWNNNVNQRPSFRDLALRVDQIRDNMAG

| Sequence | phosphorylation enrichment |
| --- | --- |
| CNPRRYPVLMS [OR2T1_Y182_L180R] | 0.822 |
| ERRLIYTSDPK [VPS13D_Y864] | 0.586 |
| EDKSIYRRGAC [PRKCI_Y125_R130C] | 0.532 |
| CEHRGFLFLAI [TEK_Y897_Y897F_YF] | 1.06 |
| PLKYLYPNIDK [STAT1_Y668] | 1 |
| GFITSYREEEQ | 1.04 |
| AIMSFYAALID [RYR1_Y2426] | 1.56 |
| FATAGYGSLEA [EPHA10_Y959_A956T] | 0.691 |
| RRNNSYTCFTA [SLC20A2_Y386_YF] | 1.95 |
| TLQRMYGCDVG [HLA-B_Y123_S121R] | 1 |
| QNVADYMRFLM [RPL5_Y207_YF] | 2.91 |
| MKALGYFAVVK [OPA1_Y498_T503K] | 1 |
| TAGFIYEKWEI [TEC_Y360_S359I] | 1.24 |
| VMAALYGRLFE [BTD_Y536_T532M_YF] | 1.03 |
| GRQWNYVASML [KLHL4_Y552_S557L] | 0.737 |
| RLLVVYPWTQK [HBG1_Y36_R41K] | 0.63 |
| SVMAEYGLFRA [VSX2_Y219_G223R_YF] | 0.505 |

| Sequence | phosphorylation enrichment |
| --- | --- |
| VVKTVYSLQPP [KNSTRN_Y87] | 0.681 |
| QPTPGYEVGQR [TSC2_Y1788_E1783Q] | 0.444 |
| QYNPEYVQQAS [LRRC7_Y1058_H1054Y] | 0.995 |
| TTKAKYKTPIF [PLD2_Y573_T577I_YF] | 0.659 |
| SSSGAYGGGYG [KRT19_Y61] | 0.346 |
| KMKGDYYRSLA [YWHAG_Y130_Y133S] | 0.616 |
| EKKKFYDAKIE [CASP5_Y104_T106A_YF] | 1.05 |
| EKKDLYKAGEQ [CFH_Y1008_V1007L] | 0.606 |
| TISPFYCQSLF [CRYAA_Y48_R49C_YF] | 0.992 |
| SVTCTYSLALN [TP53_Y126_P128L] | 1.13 |
| GARGRYVMGGP [TNK1_Y277] | 0.457 |
| FGVTLYPNSGE [MEP1A_Y472_R476G] | 1.23 |
| DVQNAYDSNHC [ZFYVE16_Y36] | 0.681 |
| ANRNVYEVEPT [MEGF10_Y1075] | 0.63 |
| PATFTYDEFKK [COL8A2_Y648_YF] | 1.3 |
| LHRAHYDLCHT [AHSG_Y314_R317C] | 0.88 |

target: MERTK (UniProt Q12866); test: as above
Sequence (Q12866 whole entry, looked up): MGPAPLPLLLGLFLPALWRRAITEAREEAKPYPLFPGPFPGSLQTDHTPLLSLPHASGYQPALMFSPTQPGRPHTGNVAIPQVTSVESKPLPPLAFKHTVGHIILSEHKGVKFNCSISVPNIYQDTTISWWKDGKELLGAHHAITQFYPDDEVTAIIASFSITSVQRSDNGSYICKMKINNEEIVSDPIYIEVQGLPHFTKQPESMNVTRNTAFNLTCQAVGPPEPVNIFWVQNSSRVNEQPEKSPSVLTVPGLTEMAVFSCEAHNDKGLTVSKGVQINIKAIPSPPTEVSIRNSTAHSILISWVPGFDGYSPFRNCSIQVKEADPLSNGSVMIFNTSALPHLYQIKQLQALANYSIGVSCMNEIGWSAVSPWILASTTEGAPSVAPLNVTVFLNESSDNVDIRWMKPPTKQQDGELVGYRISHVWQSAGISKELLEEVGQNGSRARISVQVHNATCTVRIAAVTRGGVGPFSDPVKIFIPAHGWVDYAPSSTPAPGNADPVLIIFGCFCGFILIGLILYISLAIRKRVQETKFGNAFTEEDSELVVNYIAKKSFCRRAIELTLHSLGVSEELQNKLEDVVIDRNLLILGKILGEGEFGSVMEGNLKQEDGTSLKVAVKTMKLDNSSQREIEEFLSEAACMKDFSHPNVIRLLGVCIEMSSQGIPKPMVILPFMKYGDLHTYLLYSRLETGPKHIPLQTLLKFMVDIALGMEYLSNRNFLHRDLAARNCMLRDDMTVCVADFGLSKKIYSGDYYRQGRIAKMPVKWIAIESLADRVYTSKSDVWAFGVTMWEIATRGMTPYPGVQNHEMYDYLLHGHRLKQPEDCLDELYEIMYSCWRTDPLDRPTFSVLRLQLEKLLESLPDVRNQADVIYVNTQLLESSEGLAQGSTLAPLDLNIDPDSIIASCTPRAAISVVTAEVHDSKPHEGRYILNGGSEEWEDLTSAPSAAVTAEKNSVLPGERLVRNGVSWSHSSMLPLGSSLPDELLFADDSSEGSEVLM

| Sequence | phosphorylation enrichment |
| --- | --- |
| CNPRRYPVLMS [OR2T1_Y182_L180R] | 0.411 |
| ERRLIYTSDPK [VPS13D_Y864] | 0.444 |
| EDKSIYRRGAC [PRKCI_Y125_R130C] | 0.406 |
| CEHRGFLFLAI [TEK_Y897_Y897F_YF] | 0.442 |
| PLKYLYPNIDK [STAT1_Y668] | 0.786 |
| GFITSYREEEQ | 0.489 |
| AIMSFYAALID [RYR1_Y2426] | 0.74 |
| FATAGYGSLEA [EPHA10_Y959_A956T] | 0.425 |
| RRNNSYTCFTA [SLC20A2_Y386_YF] | 1.3 |
| TLQRMYGCDVG [HLA-B_Y123_S121R] | 0.545 |
| QNVADYMRFLM [RPL5_Y207_YF] | 0.814 |
| MKALGYFAVVK [OPA1_Y498_T503K] | 0.439 |
| TAGFIYEKWEI [TEC_Y360_S359I] | 4.47 |
| VMAALYGRLFE [BTD_Y536_T532M_YF] | 1.34 |
| GRQWNYVASML [KLHL4_Y552_S557L] | 0.367 |
| RLLVVYPWTQK [HBG1_Y36_R41K] | 0.32 |
| SVMAEYGLFRA [VSX2_Y219_G223R_YF] | 0.51 |

| Sequence | phosphorylation enrichment |
| --- | --- |
| VVKTVYSLQPP [KNSTRN_Y87] | 2.61 |
| QPTPGYEVGQR [TSC2_Y1788_E1783Q] | 0.255 |
| QYNPEYVQQAS [LRRC7_Y1058_H1054Y] | 0.635 |
| TTKAKYKTPIF [PLD2_Y573_T577I_YF] | 0.495 |
| SSSGAYGGGYG [KRT19_Y61] | 0.34 |
| KMKGDYYRSLA [YWHAG_Y130_Y133S] | 0.434 |
| EKKKFYDAKIE [CASP5_Y104_T106A_YF] | 0.349 |
| EKKDLYKAGEQ [CFH_Y1008_V1007L] | 0.374 |
| TISPFYCQSLF [CRYAA_Y48_R49C_YF] | 1.8 |
| SVTCTYSLALN [TP53_Y126_P128L] | 0.614 |
| GARGRYVMGGP [TNK1_Y277] | 0.546 |
| FGVTLYPNSGE [MEP1A_Y472_R476G] | 0.341 |
| DVQNAYDSNHC [ZFYVE16_Y36] | 0.574 |
| ANRNVYEVEPT [MEGF10_Y1075] | 0.476 |
| PATFTYDEFKK [COL8A2_Y648_YF] | 0.677 |
| LHRAHYDLCHT [AHSG_Y314_R317C] | 0.435 |

test system: c-Abl (mouse); test: as above

| Sequence | phosphorylation enrichment |
| --- | --- |
| CNPRRYPVLMS [OR2T1_Y182_L180R] | 0.59 |
| ERRLIYTSDPK [VPS13D_Y864] | 0.472 |
| EDKSIYRRGAC [PRKCI_Y125_R130C] | 0.474 |
| CEHRGFLFLAI [TEK_Y897_Y897F_YF] | 0.907 |
| PLKYLYPNIDK [STAT1_Y668] | 0.775 |
| GFITSYREEEQ | 0.769 |
| AIMSFYAALID [RYR1_Y2426] | 1.02 |
| FATAGYGSLEA [EPHA10_Y959_A956T] | 0.569 |
| RRNNSYTCFTA [SLC20A2_Y386_YF] | 1.86 |
| TLQRMYGCDVG [HLA-B_Y123_S121R] | 0.816 |
| QNVADYMRFLM [RPL5_Y207_YF] | 1.42 |
| MKALGYFAVVK [OPA1_Y498_T503K] | 0.767 |
| TAGFIYEKWEI [TEC_Y360_S359I] | 1.12 |
| VMAALYGRLFE [BTD_Y536_T532M_YF] | 0.967 |
| GRQWNYVASML [KLHL4_Y552_S557L] | 0.591 |
| RLLVVYPWTQK [HBG1_Y36_R41K] | 0.617 |
| SVMAEYGLFRA [VSX2_Y219_G223R_YF] | 0.589 |

| Sequence | phosphorylation enrichment |
| --- | --- |
| VVKTVYSLQPP [KNSTRN_Y87] | 0.777 |
| QPTPGYEVGQR [TSC2_Y1788_E1783Q] | 0.443 |
| QYNPEYVQQAS [LRRC7_Y1058_H1054Y] | 1 |
| TTKAKYKTPIF [PLD2_Y573_T577I_YF] | 0.632 |
| SSSGAYGGGYG [KRT19_Y61] | 0.386 |
| KMKGDYYRSLA [YWHAG_Y130_Y133S] | 0.541 |
| EKKKFYDAKIE [CASP5_Y104_T106A_YF] | 0.718 |
| EKKDLYKAGEQ [CFH_Y1008_V1007L] | 0.62 |
| TISPFYCQSLF [CRYAA_Y48_R49C_YF] | 0.768 |
| SVTCTYSLALN [TP53_Y126_P128L] | 0.951 |
| GARGRYVMGGP [TNK1_Y277] | 0.376 |
| FGVTLYPNSGE [MEP1A_Y472_R476G] | 0.794 |
| DVQNAYDSNHC [ZFYVE16_Y36] | 0.723 |
| ANRNVYEVEPT [MEGF10_Y1075] | 0.6 |
| PATFTYDEFKK [COL8A2_Y648_YF] | 0.864 |
| LHRAHYDLCHT [AHSG_Y314_R317C] | 0.777 |
